Test results: patent publication US20190315821A1, “COMPOSITIONS COMPRISING HEPCIDIN AND METHODS OF USE THEREOF” (La Jolla Pharmaceutical Company, priority 2018, published 2019)
“And” between values parts separate entries of the source, which are not always exact repeats. Equal entries are not always repeated.

Key:
[1] = Thiol content assay of hepcidin-25 batches; format: physicochemical; settings: for Average mole thiol/[mole hepcidin]: batches of hepcidin-25 before and after purification, lower quantifiable limit 0.01; for thiol content of sample of FIG. 2: sample used in pH 2.5 / pH 5.6 stability study
Excerpt: In some embodiments, the composition comprises purified hepcidin and is substantially free of thiol (e.g., unreacted, free sulfhydryl-containing cysteines). Thiols can react with the disulfide bridges of hepcidin resulting in disulfide scrambling and potential polymerization of multiple hepcidin molecules to form aggregated hepcidin. Such thiols can come from multiple sources, some of which include thiols left over from synthesis of the hepcidin, incomplete folding of hepcidin and breakage of disulfide bridges within folded hepcidin, improperly folded hepcidin and/or aggregated hepcidin. Thiols may be measured by several methods, which may include a thiol quantification assay kit such as that from Molecular Probes: Thiol and Sulfide Quantification Kit (T-6060). Such a kit uses cysteine as a standard so that thiols are reported as cysteine equivalents. In some such embodiments the thiol content is less than 0.20 mole thiol/mole hepcidin. In some preferred embodiments, the thiol content is less than 0.1 mole thiol/mole hepcidin. In more preferred embodiments, the thiol content is less than 0.05 mole thiol/mole hepcidin. In further preferred embodiments, the thiol content is less than 0.015 mole thiol/mole hepcidin. In the most preferred embodiments, the thiol content is less than 0.01 mole thiol/mole hepcidin.
(§1) In view of the role played by intermolecular disulfide bond formation in aggregate formation, and the contribution of thiol groups to that end, multiple sources of hepcidin-25 were analyzed for thiol using a thiol content assay and evaluated for stability. Commercially available hepcidin was used in these Examples, which while “purified” to contain only hepcidin, contained thiols and aggregates, and thus may be referred to as “unpurified” to distinguish it from the compositions of the invention. […] For the purpose of this experiment the thiol impurity was removed as follows: Thiols were quenched using 1 molar equivalents of […] (NEM). The solution was then purified by tangential flow filtration (TFF) using Millipore Pellicon 2 10 kDa cassettes for aggregate removal and Pall T-Series 1 kDa for ultra-filtration-diafiltration. The starting material was diluted to less than or equal to 0.1 mg/mL prior to processing through the 10 kDa system. The diluent consisted of 15% Acetonitrile/0.05% Trifluoracetic acid (TFA).

[2] = Stability (aggregate formation by SEC) of unpurified and purified hepcidin in 0.9% saline at 40° C.; format: physicochemical; settings: for Stability: aggregate formation of the batch; for aggregation at low pH: pH 2.5, 0.9% saline, over 10 days; for aggregate by SEC: pH 5.6, 0.9% saline
Method: Aggregation can be measured by several different methods. In some embodiments, aggregation is measured by size exclusion high-performance liquid chromatography (SEC-HPLC). This method allows for the separation and quantification of hepcidin monomer from any aggregates including dimer, trimer and multimers. In other preferred embodiments, aggregation is measured by an isocratic method performed on an HPLC system comprised of a temperature controlled auto-sampler, a binary or quaternary pump, and an ultraviolet detector. For example, in some such embodiments, the mobile phase consists of 0.05% TFA in 50% acetonitrile and water and human hepcidin-25 (SEQ ID NO: 1) is dissolved in of 0.05% TFA to 1 mg/mL concentration. Five microliters of the solution are injected onto a Zenix-C SEC-80 column of 7.8×300 mm in dimension, 80 Å pore size and 3 μm particle size (Sepax Technologies, Newark, Del. 19711). A flow rate of 1 mL/min is used to elute the analyte from the column and deliver to the UV detector set at 214 nm. The entire run time is 13 min. Empower™ chromatography software or equivalent software is used to integrate each chromatography peak and calculate % peak area at each respective retention time.
as §1
The initial unpurified material and the resulting purified material were formulated in 0.9% saline at either pH 2.5 or pH 5.6 and assessed for stability at 40° C. Samples were taken over 10 days and evaluated by SEC.

[3] = Effect of salt form on aggregate formation; format: physicochemical; settings: for native pH of solution: when preparing solutions of hepcidin, before pH adjustment; for aggregation when maleic acid is present: pH 4.2, 1 mg/mL maleic acid, continued aggregation then slowed
Method: The trifluoroacetate, chloride and acetate salts of hepcidin were prepared and all three salt forms were formulated in 0.9% saline at pH 4.2. The hepcidin concentration was 20 mg/mL with a maleic acid concentration of either 0 mg/mL or 1 mg/mL. Samples were filtered using a 0.2 μm syringe filter and aliquoted into glass screw cap amber vials. The samples were assessed for stability at 5° C. and 25° C. Over the course of 47 days the samples were evaluated by visual inspection, pH and SEC.

[4] = Effect of pH 4.2 vs pH 4.8 on aggregate formation; format: physicochemical; settings: 9% starting aggregate, thiol removed, 0.9% sodium chloride, 5° C. and 25° C., about 50 days
Method: Hepcidin-25, with 9% starting aggregate and purified to remove thiol, was dissolved in 0.9% sodium chloride and adjusted to either pH 4.2 or pH 4.8. Samples were filtered using a 0.2 μm syringe filter and aliquoted into glass screw cap amber vials. Samples were assessed for stability at both 5° C. and 25° C. Samples were taken over about 50 days and evaluated by visual inspection, pH and SEC.

[5] = Initial formulation stability (oxidation) by RP-HPLC; format: physicochemical
Method: […] Samples were analyzed by reversed-phase high-performance liquid chromatography (RP-HPLC). […] Samples were evaluated over 4.5 months and analyzed by RP-HPLC. Under all conditions, the rate of oxidation observed was slow.

[6] = Mechanism of aggregate formation: stability studies and DTT reduction, SEC; format: physicochemical
Excerpt: Hepcidin contains 8 cysteines, forming 4 disulfide bridges, each with the potential to become unstable under certain conditions. […] Significant work was completed to address this degradation pathway.
Briefly, the effect of potential intermolecular disulfide bonding on aggregation was studied by adding a reducing agent to aggregated material to break all disulfide bonds. Hepcidin-25 with an aggregate content of 35% as measured by SEC was used for this study. An aliquot of this material was treated with 20 mM Dithiothreitol (DTT) and samples were evaluated by SEC.

serum iron = settings: cited from earlier work

## Vendor 1, Lot 1 purified: hepcidin-25 lot with thiols quenched with NEM and purified by tangential flow filtration
[1]
  Average mole thiol/[mole hepcidin]: <0.01 mole thiol/mole hepcidin
  thiol content of sample of FIG. 2: no detectable thiol
[2]
  Stability: Stable, very slow
[2]; 40° C.
  aggregation at low pH: no aggregation
[2]; after 10 days at 40° C.
  aggregate by SEC: about 38%

## Vendor 1, Lot 1: commercially available hepcidin-25 batch containing thiols and aggregates, referred to as unpurified
[1]
  Average mole thiol/[mole hepcidin]: 0.17 mole thiol/mole hepcidin
  thiol content of sample of FIG. 2: 1.7 mole thiol/mole hepcidin
[2]
  Stability: Unstable, rapid
[2]; 40° C.
  aggregation at low pH: aggregates more slowly
[2]; 40° C., after 24 hours
  aggregate by SEC: > 95%
[2]; within time it took to test the material by SEC
  aggregate by SEC: 38%

## Vendor 1, Lot 2: commercially available hepcidin-25 batch, unpurified
[1]
  Average mole thiol/[mole hepcidin]: >0.2 mole thiol/mole hepcidin
[2]
  Stability: Unstable, rapid

## Vendor 2, Lot 1: commercially available hepcidin-25 batch, unpurified
[1]
  Average mole thiol/[mole hepcidin]: 0.03 mole thiol/mole hepcidin
[2]
  Stability: Unstable, slower

## Vendor 2, Lot 2: commercially available hepcidin-25 batch, unpurified; label printed on two lines of Table 2
[1]
  Average mole thiol/[mole hepcidin]: 0.03 mole thiol/mole hepcidin and 0.02 mole thiol/mole hepcidin
[2]
  Stability: Unstable, slower

## Vendor 3, Lot 1: commercially available hepcidin-25 batch, unpurified
[1]
  Average mole thiol/[mole hepcidin]: 0.03 mole thiol/mole hepcidin
[2]
  Stability: Unstable, slower

## hepcidin acetate [acetate salt form]
[3]; 20 mg/mL, 0.9% saline, pH 4.2, 0 or 1 mg/mL maleic acid, 5° C. and 25° C., 47 days
  relative stability of salt forms: most stable of the three salt forms
[3]
  native pH of solution: about 5

## hepcidin chloride [HCl salt]
[3]; 20 mg/mL
  aggregation when maleic acid is present: initial increase in aggregation
[3]
  native pH of solution: about 2.5

## hepcidin trifluoroacetate [TFA]
[3]; 20 mg/mL
  aggregation when maleic acid is present: initial increase in aggregation

## hepcidin-25
[4]
  effect of pH on stability (aggregate formation): pH 4.2 being more stable than pH 4.8
[5]; 40 mg/mL in saline with or without methionine, 37° C. and 45° C., 4.5 months, all conditions
  rate of oxidation: slow
[5]; 40 mg/mL in saline, methionine ten-fold molar excess, 37° C. and 45° C.
  effect of methionine excipient on oxidation: reduced the amount of oxidation even further
[5]; 50, 100 and 150 mg/mL, 5° C. over 4.5 months, RP-HPLC
  primary degradation products observed: mono or di-oxidation of the methionine at position 21
[6]; accelerated (40° C.) and real time (5° C.) stability studies
  main mode of degradation: aggregation
[6]; material with 35% aggregate treated with 20 mM DTT
  aggregation after reduction of disulfide bonds: aggregation is reversed
Serum iron; nonclinical and clinical studies
  safety profile: favorable safety profile
Serum iron; single subcutaneous injection
  duration of iron lowering effects: up to 1 week
